Assay results from patent publication US20160297863A1 (WAKE FOREST UNIVERSITY HEALTH SCIENCES, published 2016).

Target: EphA2 receptor on GBM cells (human, UniProt P29317 24-976)
Assay: cell-based or functional assay

Sequence of EphA2 receptor on GBM cells (P29317 24-976): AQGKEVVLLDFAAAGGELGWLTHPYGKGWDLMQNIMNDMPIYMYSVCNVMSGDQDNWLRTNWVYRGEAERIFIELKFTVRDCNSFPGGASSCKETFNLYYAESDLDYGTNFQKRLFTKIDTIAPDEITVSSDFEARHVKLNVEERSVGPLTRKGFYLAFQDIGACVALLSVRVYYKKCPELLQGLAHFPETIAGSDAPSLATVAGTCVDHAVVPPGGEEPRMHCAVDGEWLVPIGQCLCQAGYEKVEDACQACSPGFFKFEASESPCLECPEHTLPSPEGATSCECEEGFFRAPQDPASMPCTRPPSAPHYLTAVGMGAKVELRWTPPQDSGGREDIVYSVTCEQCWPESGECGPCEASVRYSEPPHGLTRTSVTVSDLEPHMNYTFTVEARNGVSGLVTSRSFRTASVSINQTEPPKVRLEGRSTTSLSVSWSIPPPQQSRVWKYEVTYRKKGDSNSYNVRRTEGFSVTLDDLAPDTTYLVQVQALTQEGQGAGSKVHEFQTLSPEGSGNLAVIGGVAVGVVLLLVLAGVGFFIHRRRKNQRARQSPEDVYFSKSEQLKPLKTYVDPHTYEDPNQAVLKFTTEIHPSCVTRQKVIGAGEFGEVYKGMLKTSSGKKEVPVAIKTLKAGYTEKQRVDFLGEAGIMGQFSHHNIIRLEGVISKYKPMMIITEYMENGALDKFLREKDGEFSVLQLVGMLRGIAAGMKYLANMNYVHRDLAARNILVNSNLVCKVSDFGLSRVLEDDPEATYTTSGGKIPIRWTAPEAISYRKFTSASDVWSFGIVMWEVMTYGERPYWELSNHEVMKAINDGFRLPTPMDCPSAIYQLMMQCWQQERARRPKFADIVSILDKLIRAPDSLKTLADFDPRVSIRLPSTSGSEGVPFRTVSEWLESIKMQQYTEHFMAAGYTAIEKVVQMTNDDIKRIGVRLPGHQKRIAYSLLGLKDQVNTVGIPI

B1: eA5-PE-C (eA5-Fc chemically conjugated to PE38QQR, glycosylated form) (other)
chain: QDPGSKAVADRYAVYWNSSNPRFQRGDYHIDVCINDYLDVFCPHYEDSVPEDKTERYVLYMVNFDGYSACDHTSKGFKRWECNRPHSPNGPLKFSEKFQLFTPFSLGFEFRPGREYFYISSAIPDNGRRSCLKLKVFVRPTNSCMKTIGVHDRVFDVNDKVENSLEPADDT
How did the “IC50, GBM tumor cell killing (cell viability assay)” value turn out when B1 was run?
Its value is roughly 10 pM.
